# Target: GST-SHP-1 ΔN+CSH2 (amino acids 276-end) (human) (UniProt P29350)
# Assay: GST pulldown (FIG. 20B)
# GST-SHP-1 ΔN+CSH2 (amino acids 276-end) (human), sequence (P29350 276-595, stated change not applied): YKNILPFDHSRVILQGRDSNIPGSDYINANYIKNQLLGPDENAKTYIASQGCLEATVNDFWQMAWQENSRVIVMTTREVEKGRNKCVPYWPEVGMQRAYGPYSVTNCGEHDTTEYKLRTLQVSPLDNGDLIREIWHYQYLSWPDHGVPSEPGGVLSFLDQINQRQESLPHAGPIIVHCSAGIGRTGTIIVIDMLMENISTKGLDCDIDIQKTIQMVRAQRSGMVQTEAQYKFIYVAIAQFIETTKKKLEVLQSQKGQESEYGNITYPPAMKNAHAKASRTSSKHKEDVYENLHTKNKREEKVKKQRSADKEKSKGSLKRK
binder,measurement,value
"His-GIV-CT (aa 1660-1870), wild-type, not phosphorylated (mock- or sham-treated) (protein, not shown: small tags and cut ends) SETLESRHHKIKTGSPGSEVVTLQQFLEESNKLTSVQIKSSSQENLLDEVMKSLSVSSDFLGKDKPVSCGLARSVSGKTPGDFYDRRTTKPEFLRPGPRKTEDTYFISSAGKPTPGTQGKIKLVKESSLSRQSKDSNPYATLPRASSVISTAEGTTRRTSIHDFLTKDSRLPISVDSPPAAADSNTTAASNVDKVQESRNSKSRSREQQSS",reduction of binding against full length SHP-1,80%

# — patent publication US20140234872A1
